The text below walks through data of patent US20200317768A1 (published 2020).

For experiment [1], the target named is T1, Mouse latent myostatin (mouse, UniProt O08689 26-267; O08689 268-376).
T1 construct: Latent form = complex of two propeptides and the mature dimer
T1 sequence 1: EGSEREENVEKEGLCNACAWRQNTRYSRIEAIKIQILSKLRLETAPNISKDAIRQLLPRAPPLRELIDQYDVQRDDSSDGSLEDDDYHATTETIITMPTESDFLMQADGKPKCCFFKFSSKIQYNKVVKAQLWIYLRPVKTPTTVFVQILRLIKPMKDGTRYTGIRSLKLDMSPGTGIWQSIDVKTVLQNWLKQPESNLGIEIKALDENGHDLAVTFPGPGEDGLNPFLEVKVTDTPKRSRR
T1 sequence 2: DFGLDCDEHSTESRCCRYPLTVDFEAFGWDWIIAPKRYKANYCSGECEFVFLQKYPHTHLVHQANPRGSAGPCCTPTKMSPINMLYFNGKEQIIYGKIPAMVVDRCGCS
Kind of experiment: SPR 37C; KD pH 5.8 / KD pH 7.4.

Experiment [2] addresses T2, Cynomolgus monkey latent myostatin (cynomolgus monkey, UniProt Q95J86 25-266; Q95J86 267-375).
T2 construct: Latent form = complex of two propeptides and the mature dimer; also called Cyno latent myostatin
T2 sequence 1: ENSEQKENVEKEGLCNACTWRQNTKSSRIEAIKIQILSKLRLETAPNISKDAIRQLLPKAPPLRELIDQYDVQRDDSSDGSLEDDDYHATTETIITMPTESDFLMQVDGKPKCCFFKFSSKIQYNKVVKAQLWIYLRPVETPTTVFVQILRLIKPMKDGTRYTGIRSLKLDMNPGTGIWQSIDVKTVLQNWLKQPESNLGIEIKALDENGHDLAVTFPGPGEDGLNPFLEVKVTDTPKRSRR
T2 sequence 2: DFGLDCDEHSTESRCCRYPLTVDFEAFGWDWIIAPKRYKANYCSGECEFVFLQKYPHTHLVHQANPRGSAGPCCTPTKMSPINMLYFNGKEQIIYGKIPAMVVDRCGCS
Kind of experiment: SPR 37C; KD pH 5.8 / KD pH 7.4.

Experiment [3] has as its target T3, Human latent myostatin (human, UniProt O14793 25-266; O14793 267-375).
T3 construct: also called human myostatin latent form
T3 sequence 1: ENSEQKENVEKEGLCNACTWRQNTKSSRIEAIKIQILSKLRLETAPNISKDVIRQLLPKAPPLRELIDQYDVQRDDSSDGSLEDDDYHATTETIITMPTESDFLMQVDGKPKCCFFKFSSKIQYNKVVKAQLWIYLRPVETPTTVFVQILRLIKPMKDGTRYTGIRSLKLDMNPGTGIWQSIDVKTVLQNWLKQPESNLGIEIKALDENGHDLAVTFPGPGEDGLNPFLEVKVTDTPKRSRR
T3 sequence 2: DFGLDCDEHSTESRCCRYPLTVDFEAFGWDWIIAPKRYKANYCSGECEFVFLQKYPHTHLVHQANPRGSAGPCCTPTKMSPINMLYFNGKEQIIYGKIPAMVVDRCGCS
Put plainly: SPR 37C; KD pH 5.8 / KD pH 7.4.

The target in experiment [4] is T1, Mouse latent myostatin. Kind of experiment: SPR (BIACORE T200) 37C, pH 7.4, antibody captured by ProA/G. On the technique in general: Surface plasmon resonance follows binding to a sensor surface in real time, without labels.
The target of experiment [5] is T2, Cynomolgus monkey latent myostatin. The description is as above.
Experiment [6] deals with T3, Human latent myostatin. The experiment is described as above.
In experiment [7] the target is T4, cynomolgus monkey FcγRIIIaS extracellular domain, C-terminal His-tag (cynomolgus monkey, UniProt Q8SPW2 21-206 at identity 1.00)).
T4 construct: also called cyno FcγRIIIaS; FcgRIIIaS
T4 chain: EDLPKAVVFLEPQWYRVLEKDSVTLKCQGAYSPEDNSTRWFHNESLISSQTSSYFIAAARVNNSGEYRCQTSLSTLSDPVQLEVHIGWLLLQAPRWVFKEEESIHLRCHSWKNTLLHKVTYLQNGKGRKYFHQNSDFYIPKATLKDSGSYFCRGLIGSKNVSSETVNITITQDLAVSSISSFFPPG
Kind of experiment: SPR (BIACORE) 25C, antibody captured, FcgR as analyte; weak binding, KD by Equation 2. The protocol: The kinetic analysis of interactions between these antibodies and FcγR was carried out using BIACORE® T200 or BIACORE® 4000 (GE Healthcare). HBS-EP+ (GE Healthcare) was used as the running buffer, and the measurement temperature was set to 25° C. A chip produced by immobilizing Protein A. Protein A/G or mouse anti-human IgG kappa light chain (BD Biosciences) onto a Series S Sensor Chip CM4 or CM5 (GE Healthcare) by the amine-coupling method was used. […] After the measurement, the antibody captured on the chip was washed off by allowing reaction with 10 mM glycine-HCl, pH1.5 and 25 mM NaOH so that the chip was regenerated and used repeatedly. The sensorgrams obtained as measurement results were analyzed by the 1:1 Langmuir binding model using the BIACORE® Evaluation Software to calculate the binding rate constant ka (L/mol/s) and dissociation rate constant kd (l/s), and the dissociation constant KD (mol/L) was calculated from these values. […] Regarding such interactions, KD values were calculated using the following 1:1 binding model described in BIACORE® T100 Software Handbook BR1006-48 Edition AE.
The behavior of interacting molecules according to the 1:1 binding model on BIACORE® can be described by Equation 1: Req=C·R max/(KD+C)+RI, wherein, Req is a plot of steady-state binding levels to analyte concentration. […]

B1: MS_M103205H795-SG1/M103202L889-SK1 (antibody, human IgG1, kappa)
heavy: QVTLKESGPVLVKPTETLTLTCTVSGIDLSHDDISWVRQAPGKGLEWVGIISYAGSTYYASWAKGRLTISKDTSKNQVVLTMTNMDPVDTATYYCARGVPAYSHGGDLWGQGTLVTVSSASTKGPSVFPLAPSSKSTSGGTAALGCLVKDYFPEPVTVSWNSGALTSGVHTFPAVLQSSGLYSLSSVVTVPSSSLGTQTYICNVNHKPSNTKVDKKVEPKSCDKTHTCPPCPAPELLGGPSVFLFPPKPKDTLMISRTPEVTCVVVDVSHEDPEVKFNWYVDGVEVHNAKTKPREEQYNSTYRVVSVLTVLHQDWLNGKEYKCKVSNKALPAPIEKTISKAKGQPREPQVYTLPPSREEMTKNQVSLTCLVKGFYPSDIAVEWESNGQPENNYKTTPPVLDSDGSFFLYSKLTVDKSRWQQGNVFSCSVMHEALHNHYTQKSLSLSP
light: DIVMTQSPATLSLSPGERATLSCTSSQSVYHANWLSWFQQKPGQPPKLLIYWASTLAYGVPSRFSGSGSGTDFTLTISSLQPEDAATYYCAGGYGGGRYAFGQGTKVEIKRTVAAPSVFIFPPSDEQLKSGTASVVCLLNNFYPREAKVQWKVDNALQSGNSQESVTEQDSKDSTYSLSSTLTLSKADYEKHKVYACEVTHQGLSSPVTKSFNRGEC
notes: also called MS1032LO06-SG1
In general, Kd refers to the equilibrium constant for the complex coming apart. As for B1, the “ratio of KD at pH 5.8/pH 7.4” value was 76 with Mouse latent myostatin [1], 76 in experiment [2] and 119 in the experiment with Human latent myostatin [3]. In addition, the results for the Kd (with Mouse latent myostatin [4]; in experiment [5]; with Human latent myostatin [6]) were 0.299 nM, 0.343 nM and 0.285 nM, respectively.

B2: M103205H795-MY009/M103202L889-SK1 (antibody, human IgG1, kappa)
heavy: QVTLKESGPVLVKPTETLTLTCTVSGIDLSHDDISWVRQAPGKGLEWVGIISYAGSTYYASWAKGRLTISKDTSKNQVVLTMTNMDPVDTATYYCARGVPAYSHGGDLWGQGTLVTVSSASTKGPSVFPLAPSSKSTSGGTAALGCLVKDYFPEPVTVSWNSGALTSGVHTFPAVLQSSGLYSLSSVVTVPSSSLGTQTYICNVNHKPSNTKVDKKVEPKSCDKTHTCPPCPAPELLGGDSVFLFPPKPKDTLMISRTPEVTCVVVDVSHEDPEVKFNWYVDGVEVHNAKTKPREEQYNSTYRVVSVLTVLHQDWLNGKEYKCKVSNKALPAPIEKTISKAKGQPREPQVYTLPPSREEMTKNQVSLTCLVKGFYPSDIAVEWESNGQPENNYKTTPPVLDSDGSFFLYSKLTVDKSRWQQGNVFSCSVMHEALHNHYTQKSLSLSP
light: DIVMTQSPATLSLSPGERATLSCTSSQSVYHANWLSWFQQKPGQPPKLLIYWASTLAYGVPSRFSGSGSGTDFTLTISSLQPEDAATYYCAGGYGGGRYAFGQGTKVEIKRTVAAPSVFIFPPSDEQLKSGTASVVCLLNNFYPREAKVQWKVDNALQSGNSQESVTEQDSKDSTYSLSSTLTLSKADYEKHKVYACEVTHQGLSSPVTKSFNRGEC
notes: CH MY009 = SG1 with P238D (EU numbering); also called MS1032LO06-MY009
Molecule B2 registered a Kd in experiment [7] of 100000 nM.
